This note sets out measurements from article PMC8484605, “A complex of BRCA2 and PP2A-B56 is required for DNA repair by homologous recombination” (Nature Communications, 2021).

The target of assay [1] is T1, B56α (Homo sapiens, UniProt Q15172). Kind of assay: isothermal titration calorimetry. The following applies: reference: unphosphorylated peptide.
Assay [2] has as its system U2OS Flp-In T-REx cells. Kind of assay: Colony formation assay: Olaparib sensitivity. The assay is classed as cell-based, human. As to the method:
(§1) For transient protein expression, cells were transfected with Lipofectamine 2000 (Invitrogen) and the plasmid of interest and incubated for 48 h unless otherwise stated. For BRCA2 knockdown, cells were transfected twice with 10 nM Silencer Select BRCA2 s2084 siRNA and 10 nM Silencer Select BRCA2 s2085 siRNA (Ambion) using Lipofectamine RNAiMAX (Invitrogen) 24 and 48 h before the experiment. A luciferase oligo ([NT], Sigma) was used for control (Ctrl). U2OS Flp-In T-REx parental cells or stably expressing siRNA-resistant venus-MBP-BRCA2 constructs were transfected with Ctrl or BRCA2 siRNA as described above. […] Reseeding was performed by trypsinizing the cells, dissolving into growth medium, and counting the number of cells using the Scepter Cell Counter (Merck), followed by seeding a known number of cells into six-well plates containing growth medium. After 11 days, the cells were fixed and stained in 0.5% methylviolet, 25% methanol. The plates were scanned on a GelCount (Oxford Optronix), and the number of colonies were quantified using the GelCount software (version 1.3.04). The plating efficiency (%) for each well was calculated as the number of colonies divided by the number of cells seeded times 100. The surviving fraction for each dose of drug was calculated by normalizing the plating efficiency to that of the unperturbed condition. The plating efficiency data of Figs. 2, 3, and Supplementary Fig. 3 is derived from the unperturbed condition of the MMC sensitivity dataset, and the plating efficiency data of Fig. 4 is derived from the unperturbed condition of the Olaparib sensitivity dataset. Graphs were constructed in PRISM, and one-way ANOVA analyses with Dunnett's multiple comparison tests were performed comparing the mean of each condition to the siBRCA2 + WT condition. Exact p values are provided in the source data.

Assay [3] relates to U2OS Flp-In T-REx cells. Kind of assay: Colony formation assay: MMC sensitivity. It is filed as cell-based, human.
Description: For transient protein expression, cells were transfected with Lipofectamine 2000 (Invitrogen) and the plasmid of interest and incubated for 48 h unless otherwise stated. For BRCA2 knockdown, cells were transfected twice with 10 nM Silencer Select BRCA2 s2084 siRNA and 10 nM Silencer Select BRCA2 s2085 siRNA (Ambion) using Lipofectamine RNAiMAX (Invitrogen) 24 and 48 h before the experiment. A luciferase oligo (5′-[sequence]dTdT-3′, Sigma) was used for control (Ctrl).
U2OS Flp-In T-REx parental cells or stably expressing siRNA-resistant venus-MBP-BRCA2 constructs were transfected with Ctrl or BRCA2 siRNA as described above. Then, cells were either treated with 0, 3, or 10 ng/mL Mitomycin C for 24 h followed by reseeding into normal growth medium or reseeded directly and either treated for 24 h with 0, 5, or 15 nM CPT or continuously maintained in medium containing 0, 5.6, 16.7, or 50 nM Olaparib. […] The plates were scanned on a GelCount (Oxford Optronix), and the number of colonies were quantified using the GelCount software (version 1.3.04). The plating efficiency (%) for each well was calculated as the number of colonies divided by the number of cells seeded times 100. The surviving fraction for each dose of drug was calculated by normalizing the plating efficiency to that of the unperturbed condition. […]
Assay [4] concerns BRCA2 pT1104/pS1106 and pT1128. Kind of assay: Western blot of BRCA2 phosphorylation in BRCA2 immunoprecipitates. It is filed as cell-based, human. The following applies: U2OS Flp-In T-REx, S-phase, released 1 h, 2 μM CPT for 1 h. As to the method: For immunoprecipitations of endogenous BRCA2, U2OS Flp-In T-REx cells were synchronized to S-phase as described above, released for 1 h, and treated for 1 h with 2 μM CPT in presence or absence of 25 μM KU55933 (ATM kinase inhibitor) and 5 μM AZ20 (ATR kinase inhibitor). Cells were lysed in RIPA buffer, and proteins were immunoprecipitated on BRCA2 antibody-conjugated (Millipore Cat# OP95, RRID:AB_2067762) Rec-protein G Sepharose 4B beads (Invitrogen) for 1 h at 4 °C and washed in RIPA buffer prior to elution.
All buffers were supplemented with 1 mM DTT, Complete protease inhibitor cocktail (Roche), and PhosSTOP phosphatase inhibitor cocktail (Roche). For λ phosphatase treatment experiments, immunoprecipitants on beads were washed in buffer without phosphatase inhibitor and incubated with λ phosphatase (Sigma–Aldrich) in the applied buffer for 20 min at 30 °C before elution. Immunoprecipitants were eluted in 2× NuPage LDS sample buffer (Invitrogen). Whole-cell extracts and immunoprecipitations were analyzed by SDS-PAGE and western blotting or mass spectrometry analysis. For western blotting, samples were boiled for 5 min in NuPage LDS sample buffer and run on NuPage Bis-Tris 4–12% protein gels (Invitrogen), and proteins were transferred to PVDF membranes (Immobilon-FL, Merck). […] Quantification of western blots were carried out in ImageStudioLite (version 5.2.5., LI-COR). […]
A general note: Immunoblotting shows a protein as a band on a membrane.

The subject of assay [5] is U2OS Flp-In T-REx cells. Kind of assay: Colony formation assay: CPT sensitivity. The assay is classed as cell-based, human. As to the method:
as §1, with “The plating efficiency data of Figs. 2, 3, and Supplementary Fig. 3 is derived from the unperturbed condition of the MMC sensitivity dataset, and the plating efficiency data of Fig. 4 is derived from the unperturbed condition of the Olaparib sensitivity dataset. Graphs were constructed in PRISM, and one-way ANOVA analyses with Dunnett's multiple comparison tests were performed comparing the mean of each condition to the siBRCA2 + WT condition. Exact p values are provided in the source data.” left out

Assay [6] concerns the target T1, B56α. Kind of assay: Isothermal titration calorimetry (ITC) of BRCA2 peptides binding to B56α. Set-up: His; made in house; host or cells: E. coli BL21 Rosetta2 (DE3) R3 T1. Particulars: ITC at 25 °C; 50 mM sodium phosphate pH 7.5, 150 mM NaCl, 0.5 mM TCEP; peptide titrated into B56α; single-site model; error = standard error of the fitting; performed once. Background: In ITC the heat of successive injections is recorded.
Description: Both recombinant B56α and synthetic BRCA2 peptides were extensively dialyzed prior to ITC experiments against the ITC buffer (50 mM sodium phosphate pH 7.5, 150 mM NaCl, 0.5 mM TCEP). All experiments were performed on a MicroCal Auto-iTC200 (Malvern Panalytical) instrument at 25 °C (Auto-iTC200 version 1.1.1.0, iTC200 version 1.26.4, Origin version 7.0552 SR4). Both peptide and B56α concentrations were determined using a spectrophotometer by measuring the absorbance at 280 nm and applying values for the extinction coefficients as computed from the corresponding sequences by the ProtParam program (http://web.expasy.org/protparam/). The BRCA2 peptides were loaded into the syringe and titrated into the calorimetric cell containing B56α. The reference cell was filled with distilled water. Control experiments with the peptides injected in the sample cell filled with buffer were carried out under the same experimental conditions. […] The titration sequence consisted of a single 0.4 μl injection followed by 19 injections, 2 μl each, with 150 s spacing between injections to ensure that the thermal power returns to the baseline before the next injection. The stirring speed was 750 rpm. […] Data were analysed with MicroCal PEAQ-ITC analysis software (version 1.1.0.1262., Malvern Panalytical).

Assay [7] concerns the target T2, His-tagged B56α (UniProt Q15172 1-486).
T2 construct: source: E. coli BL21 Rosetta2 (DE3) R3 T1, purified (Ni column, Superdex 200)
Kind of assay: ITC; BRCA2 peptide in the syringe titrated into B56α in the cell; 25 °C; 50 mM sodium phosphate pH 7.5, 150 mM NaCl, 0.5 mM TCEP; single-site model. Particulars: both partners purified.

Where [8] appears, read: BRCA2 depletion (siBRCA2) vs siCtrl.
The mark [9] stands for this setting: cells expressing BRCA2 3AQ compared to BRCA2 WT.

Square brackets hold non-standard residues; d marks the D form. Ends that are not written are not given here. pT = C[C@@H](OP(=O)(O)O)[C@H](N)C(=O)O; pS = N[C@@H](COP(=O)(O)O)C(=O)O

T2 sequence (Q15172 whole entry): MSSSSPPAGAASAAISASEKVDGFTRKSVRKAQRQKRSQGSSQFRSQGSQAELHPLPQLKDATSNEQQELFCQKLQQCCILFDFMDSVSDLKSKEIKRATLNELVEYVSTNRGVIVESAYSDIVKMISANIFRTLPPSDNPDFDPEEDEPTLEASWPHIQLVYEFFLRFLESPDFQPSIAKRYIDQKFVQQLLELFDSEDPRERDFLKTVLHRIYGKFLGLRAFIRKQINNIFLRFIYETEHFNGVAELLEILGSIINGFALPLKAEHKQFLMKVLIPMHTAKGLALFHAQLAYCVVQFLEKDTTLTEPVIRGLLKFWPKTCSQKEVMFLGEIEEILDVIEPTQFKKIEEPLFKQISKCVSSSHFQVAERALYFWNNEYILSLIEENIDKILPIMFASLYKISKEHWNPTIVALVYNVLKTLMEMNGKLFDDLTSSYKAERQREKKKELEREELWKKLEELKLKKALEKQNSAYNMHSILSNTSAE
T1 sequence (Q15172 whole entry): as above

Turning to “BRCA2 (from UniProt P51587) pS1123 peptide”, the fold change entry in assay [1] (sites S1123) is given as “stronger”.

`O=C(c1cc(Cc2n[nH]c(=O)c3ccccc23)ccc1F)N1CCN(C(=O)C2CC2)CC1` [Olaparib]: the Olaparib sensitivity result is reported as “hypersensitivity” in assay [2] (setting [8]); “hypersensitivity” in assay [2] (setting [9]); “mild sensitivity” in assay [2] (cells expressing BRCA2 S1106R, T1116P or T1128I compared to BRCA2 WT).

For `CO[C@@]12[C@H](COC(N)=O)C3=C(C(=O)C(C)=C(N)C3=O)N1C[C@@H]1N[C@@H]12` [MMC, Mitomycin C], the MMC sensitivity entry in assay [3] (setting [8]) and in assay [3] (cells expressing BRCA2 3AQ or 3DQ compared to BRCA2 WT) was “hypersensitivity” each time.

Turning to `CC[C@@]1(O)C(=O)OCc2c1cc1n(c2=O)Cc2cc3ccccc3nc2-1` [Camptothecin, camptothecin], the “phosphorylation of BRCA2 T1104/S1106 and T1128” value in assay [4] is recorded as “stimulated”. The CPT sensitivity entry in assay [5] (setting [8]) and in assay [5] (setting [9]) was “hypersensitivity” throughout.

Take “WKAEITEASTALEESGSQFE [BRCA2^1108-1126 2A, synthetic BRCA2 peptide 1108-1126 with L1114A-I1117A]”: the KD result in assay [6] was “No binding”.

“BRCA2 (from UniProt P51587) doubly phosphorylated pS1123/pT1128 peptide”: the fold change entry in assay [1] (sites S1123,T1128) is “stronger”.

Turning to “BRCA2 (from UniProt P51587) pS1106 peptide”, in assay [1] (sites S1106), the “binding against the reference” value is listed as “weaker”.

Turning to “BRCA2 (from UniProt P51587) pT1128 peptide (printed once as S1128)”, the fold change entry in assay [1] (sites T1128) was “stronger”.

B1: BRCA2 1113-1129 pT1128 peptide (peptide)
peptide: WELSTILEESGSQFEF[pT]Q
notes: tryptophan at the N-terminus, outside the stated BRCA2 limits; human BRCA2, residues 1113-1129, T1128 phosphorylated; source: synthetic peptide (Peptide 2.0 Inc.)
As for B1, in assay [7], binding was characterised by a dissociation constant (Kd) of 1.38 µM and the stoichiometry N (in general, a count of units in the complex or per binding partner) came out at 0.94.

B2: BRCA2 1113-1129 pS1123, pT1128 peptide (peptide)
peptide: WELSTILEESG[pS]QFEF[pT]Q
notes: tryptophan at the N-terminus, outside the stated BRCA2 limits; human BRCA2, residues 1113-1129, S1123 and T1128 phosphorylated; also called double phosphorylated peptide; source: synthetic peptide (Peptide 2.0 Inc.)
On to B2, for which, in assay [7], binding was put at a Kd of 0.48 µM and the “stoichiometry N” value is 0.91.

B3: BRCA2 1105-1129 3DQ peptide (peptide)
peptide: PDQKAEITELSTILEESGDQFEFDQW
notes: human BRCA2, residues 1105-1129 with the three SQ/TQ sites changed to DQ (phosphomimetic); tryptophan at the C-terminus, outside the stated BRCA2 limits; source: synthetic peptide (Peptide 2.0 Inc.)
Turning to B3, in assay [7], the equilibrium dissociation constant (Kd) (as a rule, the equilibrium constant for the complex coming apart) is 3.75 µM and the “stoichiometry N” value was found to be 0.86.

B4: BRCA2 1105-1129 peptide (peptide)
peptide: PSQKAEITELSTILEESGSQFEFTQW
notes: human BRCA2, residues 1105-1129; tryptophan at the C-terminus, outside the stated BRCA2 limits; also called BRCA2^1105-1129 WT; source: synthetic peptide (Peptide 2.0 Inc.)
For B4, in assay [7], binding was put at a Kd of 7.76 µM and the “stoichiometry N” value turned out to be 0.99.

B5: BRCA2 1105-1129 T1116P peptide (peptide)
peptide: PSQKAEITELSPILEESGSQFEFTQW
notes: human BRCA2, residues 1105-1129 with the missense variant T1116P reported in individuals (ClinVar); tryptophan at the C-terminus, outside the stated BRCA2 limits; also called c.3346 A > C; source: synthetic peptide (Peptide 2.0 Inc.)
Consider B5, for which, in assay [7], binding was put at a Kd of 6.92 µM and the “stoichiometry N” value is 0.85.

B6: BRCA2 1105-1129 S1106R peptide (peptide)
peptide: PRQKAEITELSTILEESGSQFEFTQW
notes: human BRCA2, residues 1105-1129 with the missense variant S1106R reported in individuals (ClinVar); tryptophan at the C-terminus, outside the stated BRCA2 limits; also called c.3318 C > G; source: synthetic peptide (Peptide 2.0 Inc.)
Consider B6, for which, in assay [7], binding was put at a Kd of 2.93 µM and the “stoichiometry N” value amounted to 0.95.

B7: BRCA2 1105-1129 T1128I peptide (peptide)
peptide: PSQKAEITELSTILEESGSQFEFIQW
notes: human BRCA2, residues 1105-1129 with the missense variant T1128I reported in individuals (ClinVar); tryptophan at the C-terminus, outside the stated BRCA2 limits; also called c.3383 C > T; source: synthetic peptide (Peptide 2.0 Inc.)
Take B7: in assay [7], the Kd turned out to be 7.43 µM and the “stoichiometry N” value was determined as 1.01.

B8: BRCA2 1108-1126 peptide (peptide)
peptide: WKAEITELSTILEESGSQFE
notes: tryptophan at the N-terminus, outside the stated BRCA2 limits; human BRCA2, residues 1108-1126 with the LxxIxE motif; The added W probably serves the A280 concentration measurement; also called BRCA2^1108-1126 WT; source: synthetic peptide (Peptide 2.0 Inc.)
As for B8, in assay [7], binding was put at a Kd of 5.17 µM and the “stoichiometry N” value was 1.02.

B9: BRCA2 1113-1129 pS1123 peptide (peptide)
peptide: WELSTILEESG[pS]QFEFTQ
notes: tryptophan at the N-terminus, outside the stated BRCA2 limits; human BRCA2, residues 1113-1129, S1123 phosphorylated; source: synthetic peptide (Peptide 2.0 Inc.)
Regarding B9, in assay [7], the dissociation constant (Kd) is 0.77 µM and the “stoichiometry N” value turned out to be 0.92.

B10: BRCA2 1113-1129 peptide (peptide)
peptide: WELSTILEESGSQFEFTQ
notes: tryptophan at the N-terminus, outside the stated BRCA2 limits; human BRCA2, residues 1113-1129; source: synthetic peptide (Peptide 2.0 Inc.)
With B10, in assay [7], the Kd amounted to 3.82 µM and the “stoichiometry N” value came out at 1.01.
